Reference: article PMC9482650, “Quantitative fragmentomics allow affinity mapping of interactomes” (Nature Communications, 2022)

How the values were obtained:
Assay in all cases: holdup assay
Design in all cases: key: below the threshold = too weak to quantify, mostly under pKd 3.1 to 4
Inadl_9, Q8NI35 = target: Inadl_9, Q8NI35
DFNB31_3, Q9P202 = target: T1, DFNB31_3, Q9P202
T1 sequence (Q9P202 811-907, limits assumed, looked up): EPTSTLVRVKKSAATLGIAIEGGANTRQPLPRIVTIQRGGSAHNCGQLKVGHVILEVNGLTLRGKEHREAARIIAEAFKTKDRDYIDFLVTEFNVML

MPP6, Q9NZW5 = target: T2, MPP6, Q9NZW5
T2 sequence (Q9NZW5 125-219, limits assumed, looked up): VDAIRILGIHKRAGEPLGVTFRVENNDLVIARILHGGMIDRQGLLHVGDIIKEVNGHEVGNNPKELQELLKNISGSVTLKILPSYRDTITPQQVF

DLG2_2, Q15700 = target: DLG2_2, Q15700
LAP2, Q96RT1 = target: LAP2, Q96RT1
SCRIB_1, Q14160 = target: SCRIB_1, Q14160
DLG1_2, Q12959 = target: DLG1_2, Q12959
Inadl_2, Q8NI35 = target: Inadl_2, Q8NI35
GRIP2_6, Q9C0E4 = target: GRIP2_6, Q9C0E4
DLG5_1, Q8TDM6 = target: DLG5_1, Q8TDM6
APBA3_1, O96018 = target: T3, APBA3_1, O96018
T3 sequence (O96018 389-490, limits assumed, looked up): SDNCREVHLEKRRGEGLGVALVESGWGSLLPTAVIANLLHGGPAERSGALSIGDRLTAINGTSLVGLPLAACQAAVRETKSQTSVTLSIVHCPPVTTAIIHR

DLG4_3, P78352 = target: DLG4_3, P78352
RHPN1, Q8TCX5 = target: T4, RHPN1, Q8TCX5
T4 sequence (Q8TCX5 508-602, limits assumed, looked up): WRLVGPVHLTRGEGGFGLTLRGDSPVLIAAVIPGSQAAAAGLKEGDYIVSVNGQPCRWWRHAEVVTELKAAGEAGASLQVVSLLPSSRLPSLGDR

MAST2, Q6P0Q8 = target: MAST2, Q6P0Q8
DVL3, Q92997 = target: T5, DVL3, Q92997
T5 sequence (Q92997 244-331, limits assumed, looked up): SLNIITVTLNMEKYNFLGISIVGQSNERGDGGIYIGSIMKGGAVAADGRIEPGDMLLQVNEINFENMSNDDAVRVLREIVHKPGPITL

FRMPD3, Q5JV73 = target: FRMPD3, Q5JV73
GRIP2_3, Q9C0E4 = target: GRIP2_3, Q9C0E4
FRMPD2_1, Q68DX3 = target: FRMPD2_1, Q68DX3
GRIP1_2, Q9Y3R0 = target: T6, GRIP1_2, Q9Y3R0
T6 sequence (Q9Y3R0 145-248, limits assumed, looked up): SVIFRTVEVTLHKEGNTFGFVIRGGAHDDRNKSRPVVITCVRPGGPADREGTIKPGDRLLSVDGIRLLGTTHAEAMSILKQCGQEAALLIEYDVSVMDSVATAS

SNX27, Q96L92 = target: SNX27, Q96L92
GRIP2_7, Q9C0E4 = target: GRIP2_7, Q9C0E4
MAGI2_2, Q86UL8 = target: MAGI2_2, Q86UL8
HTRA4, P83105 = target: T7, HTRA4, P83105
T7 sequence (P83105 378-476, limits assumed, looked up): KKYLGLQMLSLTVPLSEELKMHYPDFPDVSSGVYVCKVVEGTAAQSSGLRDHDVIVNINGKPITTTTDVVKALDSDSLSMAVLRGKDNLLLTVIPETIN

LDB3, O75112 = target: LDB3, O75112
Inadl_8, Q8NI35 = target: Inadl_8, Q8NI35
IL16_4, Q14005 = target: IL16_4, Q14005
LRRC7, Q96NW7 = target: T8, LRRC7, Q96NW7
T8 sequence (Q96NW7 1440-1537, limits assumed, looked up): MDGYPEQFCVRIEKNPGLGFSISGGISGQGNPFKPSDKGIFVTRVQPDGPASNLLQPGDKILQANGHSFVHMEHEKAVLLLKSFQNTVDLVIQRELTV

ARHGAP21, Q5T5U3 = target: T9, ARHGAP21, Q5T5U3
T9 sequence (Q5T5U3 45-169, limits assumed, looked up): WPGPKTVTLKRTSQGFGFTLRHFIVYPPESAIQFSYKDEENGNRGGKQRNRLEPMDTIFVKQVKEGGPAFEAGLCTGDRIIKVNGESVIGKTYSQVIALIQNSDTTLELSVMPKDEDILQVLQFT

[1] = plain residues with an end cap or a label only (N-terminal biotin on a linker: ttds)
[2] = plain residues with an end cap or a label only (N-terminal biotin on a linker: ahx)

Inadl_8, Q8NI35, sequence (Q8NI35 1425-1530): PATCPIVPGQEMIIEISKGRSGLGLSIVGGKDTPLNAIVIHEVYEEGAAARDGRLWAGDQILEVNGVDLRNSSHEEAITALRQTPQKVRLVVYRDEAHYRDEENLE
DLG1_2, Q12959, sequence (Q12959 314-412): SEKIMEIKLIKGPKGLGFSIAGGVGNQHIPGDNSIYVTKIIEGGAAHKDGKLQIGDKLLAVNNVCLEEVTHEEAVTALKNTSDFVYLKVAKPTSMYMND
DLG2_2, Q15700, sequence (Q15700 189-283): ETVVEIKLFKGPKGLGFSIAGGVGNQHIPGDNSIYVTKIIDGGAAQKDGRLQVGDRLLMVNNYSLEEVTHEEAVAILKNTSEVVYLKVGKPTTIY
GRIP2_7, Q9C0E4, sequence (Q9C0E4 934-1023): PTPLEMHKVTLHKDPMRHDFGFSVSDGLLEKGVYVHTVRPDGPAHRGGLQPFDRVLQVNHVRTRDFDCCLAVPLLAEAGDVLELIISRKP
FRMPD3, Q5JV73, sequence (Q5JV73 12-100): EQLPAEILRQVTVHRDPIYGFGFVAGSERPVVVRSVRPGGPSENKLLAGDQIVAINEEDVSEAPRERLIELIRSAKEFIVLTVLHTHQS
DLG5_1, Q8TDM6, sequence (Q8TDM6 617-713): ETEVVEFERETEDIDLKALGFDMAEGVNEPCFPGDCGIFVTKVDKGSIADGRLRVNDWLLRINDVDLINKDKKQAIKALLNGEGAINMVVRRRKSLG
GRIP2_6, Q9C0E4, sequence (Q9C0E4 648-740): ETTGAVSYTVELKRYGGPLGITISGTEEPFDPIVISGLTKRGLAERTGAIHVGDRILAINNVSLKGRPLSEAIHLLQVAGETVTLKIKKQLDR
SCRIB_1, Q14160, sequence (Q14160 718-814): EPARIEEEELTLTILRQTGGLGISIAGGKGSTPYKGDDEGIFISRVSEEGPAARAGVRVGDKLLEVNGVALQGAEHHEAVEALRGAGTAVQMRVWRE
MAGI2_2, Q86UL8, sequence (Q86UL8 410-522): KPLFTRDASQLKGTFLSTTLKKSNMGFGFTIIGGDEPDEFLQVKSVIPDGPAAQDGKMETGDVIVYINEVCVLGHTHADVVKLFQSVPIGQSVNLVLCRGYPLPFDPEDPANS
GRIP2_3, Q9C0E4, sequence (Q9C0E4 238-339): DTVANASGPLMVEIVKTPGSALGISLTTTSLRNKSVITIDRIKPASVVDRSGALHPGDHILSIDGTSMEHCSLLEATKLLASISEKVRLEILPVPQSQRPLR
FRMPD2_1, Q68DX3, sequence (Q68DX3 770-861): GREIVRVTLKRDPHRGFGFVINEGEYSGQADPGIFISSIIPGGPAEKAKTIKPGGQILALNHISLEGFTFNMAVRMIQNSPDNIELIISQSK
IL16_4, Q14005, sequence (Q14005 1229-1329): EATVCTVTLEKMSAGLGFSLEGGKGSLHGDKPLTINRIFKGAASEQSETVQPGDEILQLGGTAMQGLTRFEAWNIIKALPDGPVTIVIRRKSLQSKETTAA
LAP2, Q96RT1, sequence (Q96RT1 other isoform, or with tags, fused parts or gaps): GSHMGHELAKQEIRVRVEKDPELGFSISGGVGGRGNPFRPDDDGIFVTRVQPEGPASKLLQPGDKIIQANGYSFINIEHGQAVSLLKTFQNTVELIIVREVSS
Inadl_9, Q8NI35, sequence (Q8NI35 1530-1615): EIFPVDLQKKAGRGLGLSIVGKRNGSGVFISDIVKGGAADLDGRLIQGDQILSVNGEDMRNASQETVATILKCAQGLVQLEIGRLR
LDB3, O75112, sequence (O75112 1-94): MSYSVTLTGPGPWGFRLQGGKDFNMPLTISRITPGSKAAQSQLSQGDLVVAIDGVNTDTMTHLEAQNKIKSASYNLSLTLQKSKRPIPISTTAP
Inadl_2, Q8NI35, sequence (Q8NI35 238-335): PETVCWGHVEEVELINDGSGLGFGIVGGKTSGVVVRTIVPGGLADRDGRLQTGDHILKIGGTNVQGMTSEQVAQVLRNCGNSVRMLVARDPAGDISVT
DLG4_3, P78352, sequence (P78352 306-403): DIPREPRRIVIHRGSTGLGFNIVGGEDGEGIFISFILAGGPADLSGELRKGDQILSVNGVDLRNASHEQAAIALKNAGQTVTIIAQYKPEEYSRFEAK
MAST2, Q6P0Q8, sequence (Q6P0Q8 1099-1202): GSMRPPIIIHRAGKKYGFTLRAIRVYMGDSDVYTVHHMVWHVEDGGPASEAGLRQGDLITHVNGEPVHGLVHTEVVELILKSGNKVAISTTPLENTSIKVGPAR

B1: FZD7, O75084 (peptide)
chain: SHSSKGETAV
For B1, the pKd (Inadl_9, Q8NI35; [1]) was “below the threshold”, the pKd (DFNB31_3, Q9P202; [1]) was “below the threshold” and the pKd (MPP6, Q9NZW5; [1]) was “below the threshold”. For the same binder, the pKd (DLG2_2, Q15700; [1]) was 4.55, the pKd (LAP2, Q96RT1; [1]) was 4.04 and the pKd (SCRIB_1, Q14160; [1]) was 4.11. For the same binder, the pKd (DLG1_2, Q12959; [1]) was 4.78, the pKd (Inadl_2, Q8NI35; [1]) was “below the threshold” and the pKd (GRIP2_6, Q9C0E4; [1]) was 3.58. The pKd (DLG5_1, Q8TDM6; [1]) was “below the threshold”, the pKd (APBA3_1, O96018; [1]) was “below the threshold” and the pKd (DLG4_3, P78352; [1]) was 4.02. For the same binder, the pKd (RHPN1, Q8TCX5; [1]) was “below the threshold”, the pKd (MAST2, Q6P0Q8; [1]) was 5.09 and the pKd (DVL3, Q92997; [1]) was “below the threshold”. The pKd (FRMPD3, Q5JV73; [1]) was “below the threshold”, the pKd (GRIP2_3, Q9C0E4; [1]) was 3.55 and the pKd (FRMPD2_1, Q68DX3; [1]) was 3.8. For the same binder, the pKd (GRIP1_2, Q9Y3R0; [1]) was “below the threshold”, the pKd (SNX27, Q96L92; [1]) was 4.8 and the pKd (GRIP2_7, Q9C0E4; [1]) was “below the threshold”. The pKd (MAGI2_2, Q86UL8; [1]) was 4.67, the pKd (HTRA4, P83105; [1]) was “below the threshold” and the pKd (LDB3, O75112; [1]) was “below the threshold”. The pKd (Inadl_8, Q8NI35; [1]) was “below the threshold”, the pKd (IL16_4, Q14005; [1]) was “below the threshold” and the pKd (LRRC7, Q96NW7; [1]) was “below the threshold”. The pKd (ARHGAP21, Q5T5U3; [1]) was “below the threshold”.

B2: GPR6, P46095 (peptide)
chain: PFRSRSPSEV
B2 was tested, and the pKd (Inadl_9, Q8NI35; [1]) was 3.47, the pKd (DFNB31_3, Q9P202; [1]) was “below the threshold” and the pKd (MPP6, Q9NZW5; [1]) was “below the threshold”. The pKd (DLG2_2, Q15700; [1]) was “below the threshold”, the pKd (LAP2, Q96RT1; [1]) was “below the threshold” and the pKd (SCRIB_1, Q14160; [1]) was “below the threshold”. For the same binder, the pKd (DLG1_2, Q12959; [1]) was 3.87, the pKd (Inadl_2, Q8NI35; [1]) was “below the threshold” and the pKd (GRIP2_6, Q9C0E4; [1]) was “below the threshold”. For the same binder, the pKd (DLG5_1, Q8TDM6; [1]) was “below the threshold”, the pKd (APBA3_1, O96018; [1]) was “below the threshold” and the pKd (DLG4_3, P78352; [1]) was “below the threshold”. For the same binder, the pKd (RHPN1, Q8TCX5; [1]) was “below the threshold”, the pKd (MAST2, Q6P0Q8; [1]) was “below the threshold” and the pKd (DVL3, Q92997; [1]) was 3.6. The pKd (FRMPD3, Q5JV73; [1]) was “below the threshold”, the pKd (GRIP2_3, Q9C0E4; [1]) was “below the threshold” and the pKd (FRMPD2_1, Q68DX3; [1]) was “below the threshold”. The pKd (GRIP1_2, Q9Y3R0; [1]) was 3.52, the pKd (SNX27, Q96L92; [1]) was “below the threshold” and the pKd (GRIP2_7, Q9C0E4; [1]) was “below the threshold”. For the same binder, the pKd (MAGI2_2, Q86UL8; [1]) was “below the threshold”, the pKd (HTRA4, P83105; [1]) was “below the threshold” and the pKd (LDB3, O75112; [1]) was “below the threshold”. The pKd (Inadl_8, Q8NI35; [1]) was 4.04, the pKd (IL16_4, Q14005; [1]) was “below the threshold” and the pKd (LRRC7, Q96NW7; [1]) was “below the threshold”. For the same binder, the pKd (ARHGAP21, Q5T5U3; [1]) was “below the threshold”.

B3: RASSF6, Q6ZTQ3 (peptide)
chain: KLVIKTETTV
B3 was tested, and the pKd (Inadl_9, Q8NI35; [1]) was 3.54, the pKd (DFNB31_3, Q9P202; [1]) was “below the threshold” and the pKd (MPP6, Q9NZW5; [1]) was “below the threshold”. For the same binder, the pKd (DLG2_2, Q15700; [1]) was 5.24, the pKd (LAP2, Q96RT1; [1]) was “below the threshold” and the pKd (SCRIB_1, Q14160; [1]) was 3.9. The pKd (DLG1_2, Q12959; [1]) was 5.55, the pKd (Inadl_2, Q8NI35; [1]) was “below the threshold” and the pKd (GRIP2_6, Q9C0E4; [1]) was “below the threshold”. For the same binder, the pKd (DLG5_1, Q8TDM6; [1]) was “below the threshold”, the pKd (APBA3_1, O96018; [1]) was “below the threshold” and the pKd (DLG4_3, P78352; [1]) was 4.39. For the same binder, the pKd (RHPN1, Q8TCX5; [1]) was 3.93, the pKd (MAST2, Q6P0Q8; [1]) was 5.13 and the pKd (DVL3, Q92997; [1]) was “below the threshold”. The pKd (FRMPD3, Q5JV73; [1]) was “below the threshold”, the pKd (GRIP2_3, Q9C0E4; [1]) was “below the threshold” and the pKd (FRMPD2_1, Q68DX3; [1]) was “below the threshold”. The pKd (GRIP1_2, Q9Y3R0; [1]) was “below the threshold”, the pKd (SNX27, Q96L92; [1]) was 5.03 and the pKd (GRIP2_7, Q9C0E4; [1]) was “below the threshold”. The pKd (MAGI2_2, Q86UL8; [1]) was 5.11, the pKd (HTRA4, P83105; [1]) was 3.46 and the pKd (LDB3, O75112; [1]) was “below the threshold”. For the same binder, the pKd (Inadl_8, Q8NI35; [1]) was “below the threshold”, the pKd (IL16_4, Q14005; [1]) was 3.49 and the pKd (LRRC7, Q96NW7; [1]) was “below the threshold”. For the same binder, the pKd (ARHGAP21, Q5T5U3; [1]) was “below the threshold”.

B4: USH1C, Q9Y6N9 (peptide)
chain: KEYDDELTFF
In the case of B4, the pKd (Inadl_9, Q8NI35; [2]) is reported as “below the threshold”, the pKd (DFNB31_3, Q9P202; [2]) is reported as 3.88 and the pKd (MPP6, Q9NZW5; [2]) is reported as “below the threshold”. The pKd (DLG2_2, Q15700; [2]) was “below the threshold”, the pKd (LAP2, Q96RT1; [2]) was “below the threshold” and the pKd (SCRIB_1, Q14160; [2]) was “below the threshold”. The pKd (DLG1_2, Q12959; [2]) was “below the threshold”, the pKd (Inadl_2, Q8NI35; [2]) was 4.09 and the pKd (GRIP2_6, Q9C0E4; [2]) was “below the threshold”. For the same binder, the pKd (DLG5_1, Q8TDM6; [2]) was “below the threshold”, the pKd (APBA3_1, O96018; [2]) was “below the threshold” and the pKd (DLG4_3, P78352; [2]) was “below the threshold”. The pKd (RHPN1, Q8TCX5; [2]) was 4.11, the pKd (MAST2, Q6P0Q8; [2]) was 5.3 and the pKd (DVL3, Q92997; [2]) was 3.62. For the same binder, the pKd (FRMPD3, Q5JV73; [2]) was 4.7, the pKd (GRIP2_3, Q9C0E4; [2]) was “below the threshold” and the pKd (FRMPD2_1, Q68DX3; [2]) was “below the threshold”. For the same binder, the pKd (GRIP1_2, Q9Y3R0; [2]) was “below the threshold”, the pKd (SNX27, Q96L92; [2]) was 4.51 and the pKd (GRIP2_7, Q9C0E4; [2]) was “below the threshold”. For the same binder, the pKd (MAGI2_2, Q86UL8; [2]) was “below the threshold”, the pKd (HTRA4, P83105; [2]) was “below the threshold” and the pKd (LDB3, O75112; [2]) was “below the threshold”. The pKd (Inadl_8, Q8NI35; [2]) was “below the threshold”, the pKd (IL16_4, Q14005; [2]) was “below the threshold” and the pKd (LRRC7, Q96NW7; [2]) was “below the threshold”. For the same binder, the pKd (ARHGAP21, Q5T5U3; [2]) was 3.87.
